Kd data for 3 molecules are collected here from paper PMC4650419 (Cell Research, 2015).

To fix the notation:
B1: mouse monoclonal antibody 4C2 (IgG1) (antibody, V domains shown)
VH: DVKLVESGGGLVKPGGSLKLSCAASGFTFSSYTMSWVRQTPEKRLEWVATISSGGSYTYYPDSVKGRFTISRDNAKNTLYLQMSSLKSEDTAMYYCTRDGNDYDYWGQGTTLTVSS
VL: DIQMTQTTSSLSASLGDRVTISCRASQDISNYLNWYQQKPDGTVKLLIYYTSRLHSGVPSRFSGSGSGTDYSLTISNLEQEDIATYFCQQGNTLPRTFGGGTKLEIK
B2: humanized 4C2 (4C2h), full-length antibody (antibody, V domains shown)
VH: QVQLQESGGGLVKPGGSLKLSCAASGFTFSSYTMSWVRQTPDKRLEWVATISSGGSYTYYPDSVKGRFTISRDNAKNTLYLQMSSLKSEDTAMYYCARDGNDYDYWGQGTMVTVSS
VL: DIQLTQSPSSLSASIGDRVTITCQASQDISNYLNWYQQRPGQAPKLLIYYTSRLHSGVPSRFSGRGSGTSFTIAINSFQAEDIGTYFCQQGNTLPRTFGGGTRVEIK
B3: mouse monoclonal antibody 2E6 (IgG1) (antibody, V domains shown)
VH: QVQLKGSGPGLVAPSQSLSITCTVSGFSLTGYGVNWVRQPPGKGLEWLGMIWGDGSTDYNSALKSRLSISKDNSKSQVFLKMNSLQTDDTARYYCARVGDYGDYFDYWGQGTTLTVSS
VL: DIQMTQSPASLSASVGETVTITCRASENIYSYLAWYQQKQGKSPQLLVYNAKTLAEGVPSRFSGSGSGTQFSLKINSLQPEDFGSYYCQHHYGTPWFGGGTKLEIK

For the experiment, the target named is MERS-CoV spike receptor-binding domain (spike residues 367-606), hexa-His tagged (MERS-CoV, isolate EMC/2012 (GenBank …)). In words: SPR.
What is called Kd is a measure of binding affinity in units of concentration. In the case of B1, the dissociation constant Kd was found to be 162 nM. In turn, B2 gave a Kd of around 217 nM. As for B3, the Kd amounted to 60.3 nM.
